Source: the supplement of paper PMC12042874
± gives the uncertainty stated by the source.

Assay: amyloid nucleation score (Sup35N fusion, yeast selection) (log enrichment); library NNK3; higher = more nucleation; inactive = no reads after selection
How it was run: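 The nucleation score is a DiMSum log enrichment of output over input reads, centred on the mode score of non-aggregating sequences. Sequences under 100 input reads were excluded, and reads came from Illumina sequencing of plasmid inserts. Psi-negative yeast expressing Sup35N fused to peptides of 20 random codons were induced with 100 μM copper sulfate for 24 hours and grown 7 days at 30°C on medium lacking adenine and uracil. Random libraries had three technical output replicates.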

Substance	amyloid nucleation score
FALLMCDSHRSCNNVNNFVH	inactive
FANKTRYSPWSCNPVFWYDR	inactive
FAQLISYHSMLTCCKMTM	1.54 ± 0.096
FAQYYDSVPIDEDTIQIVHI	inactive
FATFYVQQGFGNFAPKAYS	inactive
FCENRFTSFLKNVIIW	0.398 ± 0.18
FCMRMDRLQLRIADSLLRFF	inactive
FCPTVCQFMVPPPHPSKKLY	inactive
FCTFSLRHYVTKNGPVCPTK	inactive
FCYLPRALCEVLNRCLLNSL	inactive
FDFARWKDMKRESFLFLDVR	inactive
FDFRFYQVVVGGCRIETVIV	inactive
FDGTGRLRF	-0.629 ± 1.2
FDIYLCDMYSLIFVCTGRLP	-0.544 ± 0.66
FDKGFLMTLNTLAVLSNQE	inactive
FDLSLDSMKFEAFYFVVRLV	inactive
FDRLNRDDVIFPSRDFNVSS	inactive
FDVDGLILFICWCMQRAHM	inactive
FECYRSSLGQWVMLDVSIHW	-0.534 ± 0.87
FEEYAIYPVAKGSVKMDAAL	inactive
FFCMWDRMIALWSHFCNLDG	inactive
FFFRYILKGMPVLFAVCRHC	inactive
FFGPLPRTAIYQHILCTRNG	0.665 ± 0.14

Substance	amyloid nucleation score
FFHFSNVCTWVPDYSETSPS	inactive
FFHSIPKFFRAQKMCTYVPP	inactive
FFIFRDVSTVDSLGPLYRLM	1.14 ± 0.2
FFIYVQTGPS	-0.922 ± 1.5
FFKDSIVLGVSLRYQFSYLT	inactive
FFLCDRKNRRST	inactive
FFSCYVESNSVMGKDFCRVM	0.788 ± 0.12
FFVNYHVGIFMSIYQIFVYV	inactive
FGFRCWLFWS	inactive
FGFYKWPTTCLGSVSSLSSM	0.749 ± 0.11
FGGLRTATL	inactive
FGIWRLCRFFA	inactive
FGMGKRLSNENMPLVSCTGL	inactive
FGQYSGVSCNWTPGCPAPCF	inactive
FGRFVMERLTS	inactive
FGSVVGRCSTSFVYRLINIR	0.65 ± 0.17
FGSYFSLKVFYNYF	2.38 ± 0.055
FGVSIVRHQVLLCGLSCISL	1.85 ± 0.091
FGVVH	inactive
FHLKKHWGKHGYFFMEDRRT	inactive
FHMFMTYTWYPVI	inactive
FHPFFIGVGSFLGSLHEFQS	inactive
FHRTEGCECVASLKVARGVV	0.223 ± 0.31

Substance	amyloid nucleation score
FHSGMHCMKDFDCLPGFVGR	inactive
FHTYIELLRALIAIRQGGSF	inactive
FHYVCFTFDSKFVGKLSYGS	1.61 ± 0.1
FIDMN	inactive
FIFSTLHNVLHGSNRVNSVW	inactive
FIGVKQTRKLNTFCLGSWLM	-0.061 ± 0.66
FIIITKAFYRGTKMGGNTYS	-0.427 ± 0.73
FIIPSSMTHMARKNIVRAW	inactive
FILFRYVTNALRKSAWVRLC	inactive
FILLGRNGLG	inactive
FILYMCKCS	inactive
FIMLQSPTNSSQILMPTQFT	inactive
FIMRSSSC	inactive
FIRIHRNAI	inactive
FISHSCYGWILRGCQTVGFW	-0.552 ± 0.98
FISRRIRNVILWCYFM	inactive
FITVNRQNGK	inactive
FIWIIMVGNNVPNT	2.06 ± 0.093
FIWIT	inactive
FIWQMGNNPVVVAFSCRAGW	2.56 ± 0.076
FIYSGYTSVNKILGFYNHDS	0.95 ± 0.16
FIYSHTVWFRNYLHMYPILF	inactive
FKITEYVSFNGTRPDNISMN	-0.082 ± 0.85

Substance	amyloid nucleation score
FKLVGCGCNVMTFVSYLVNQ	1.98 ± 0.083
FKLWWIKCCMHPLMMHVAWM	-0.036 ± 0.27
FKNRYFHLPCSDLLYHSLGR	inactive
FKQMDTLTHISFSKAIMPSF	inactive
FKRWLSSWFKLA	inactive
FKTFSFFKLFCTYCYYTLTE	inactive
FKVLSFKSENSSYYVPFGLD	inactive
FKYLVIVNNWG	2.82 ± 0.071
FLCTLSMWYCIDRTFMYMCS	-0.053 ± 0.32
FLDFTWMKHGTLALPQAAHQ	inactive
FLDGFVQPISESINLLMFCT	inactive
FLFIGSFCGCSVSRPDRYYS	2.57 ± 0.08
FLFYLFFFSGRMDR	0.179 ± 0.33
FLGFDRVFYGRRISPSFVRT	inactive
FLGTVLLGWFIAMMSRCLGR	0.048 ± 0.45
FLHDFSILIGMICNQIGITL	1.24 ± 0.17
FLIVGFPGNKLGC	0.848 ± 0.1
FLIYAQALLF	inactive
FLLEYYVCMFAVWSIWGMGH	0.317 ± 0.75
FLLFFILPSVRDLASHKSRG	0.099 ± 0.19
FLLTYVNIRGMQP	1.49 ± 0.099
FLMCVNFVCCIIMCCGTIWG	inactive
FLMCWVLIVV	inactive

Substance	amyloid nucleation score
FLMNDSCDRTIWFNVFLSNS	0.7 ± 0.18
FLNCFSC	2.69 ± 0.054
FLNLIYNLGRLWFQQLTRFK	inactive
FLNTSPYCGTL	inactive
FLRLKFRAYDP	1.01 ± 0.11
FLRWFWRD	0.785 ± 0.18
FLSLC	inactive
FLSLWLCSRCVSKSCGGFML	inactive
FLTSVGIAYAKFRLGYSCLL	inactive
FLVLVGIGIGMYLFVNHYVD	1.64 ± 0.088
FLVNFGKDFEIWREHYGVTI	-0.484 ± 1.4
FLVVVSF	inactive
FLWGICWYRMVMKAHFDFIC	inactive
FLYMSMPSLSMVQICYSQRG	1.99 ± 0.07
FMCLFMNHYLKFGTSFPGRG	0.974 ± 0.14
FMDFRSYITGHNWIHAAWPA	inactive
FMPTVQVRLQC	inactive
FMTSEWRMGMYGVSGRITWE	0.73 ± 0.24
FMVLRYCVILWGFWEYMSSA	inactive
FMYDYLAHLPGDFVNNSCRR	inactive
FMYKLSLLVCDKWLIVILPF	inactive
FMYMVNMVNVTVN	inactive
FNDNVFIGRYVRTSYCLNLR	1.72 ± 0.064

Substance	amyloid nucleation score
FNDSLSLTVTRVIF	inactive
FNFTVSRVPISVMVLQKRRK	1.18 ± 0.086
FNFVLALI	1.69 ± 0.084
FNFVYV	0.062 ± 0.88
FNITGRVSYSIVTLCFMQCK	2.75 ± 0.069
FNLLHTRMTLLYSNIRNRYN	0.358 ± 0.62
FNNFRFTGQHR	inactive
FNRGKRCNSIRSLVPCNSPL	inactive
FNRGLLNHFFGH	inactive
FNSDKMAPLTGLCEVVRFGR	inactive
FNSNFHHSVNSVNGITFSEA	inactive
FNSYHTANRYI	inactive
FNVLSDPACVRPGLVVRVSE	inactive
FNVSHLVRYSVCYFCGMIEL	1.89 ± 0.063
FNVSTGCRWSWAPDHSPCQE	-0.058 ± 0.66
FNYRFSLSHKNGFTRVNYGL	inactive
FPGSS	inactive
FPHSSGCYDAVTWSSWNGGH	inactive
FPMCFSFHLIGQ	inactive
FPMSIESDSLNSGRGLRPWG	inactive
FPRNVPG	inactive
FPRSSRIFSCCSRIRLCAFV	inactive
FPSSMGRQYIGVCKYLSDPP	inactive

Substance	amyloid nucleation score
FPYLRRTMGVLIYQCVPIRG	inactive
FPYNGALSFCIWYRVASRVY	inactive
FQKGLRQDYQVFLFDSNRFW	inactive
FQLWVKRTYNAEGNLYSPDD	inactive
FRCPMFFNCSSVLTSHVSLA	1.34 ± 0.16
FRFSR	inactive
FRGCYRFELLSDTCISRELV	inactive
FRGEMLFKVQF	0.275 ± 0.27
FRHCGCHTFLCIIVTDRHHY	1.85 ± 0.061
FRHCWRR	-0.532 ± 1.1
FRMTPHIGALSNRLHVTTWL	-0.226 ± 0.7
FRNRCVNDD	inactive
FRNVGMLGSNLGFGINNDIN	inactive
FRRFSGTGFIMSEIAYFFSI	inactive
FRSEVGVNFNRTLWRYNRVY	inactive
FRSFIGKNHEKRSVILCILE	inactive
FRSWPS	inactive
FRTTLKTR	inactive
FRVNKYNISFLVRQSGIWLA	inactive
FRVYQNIDTERDSRTSPKES	inactive
FRYPYNPVIREFCTCSSWFL	1.73 ± 0.069
FRYRNSSTEVCWKRSWLTLG	inactive
